Test results as given in US20190161753.

Target: T1, The other proteins of the P. furiosus Cmr effector complex (Cmr1, Cmr3, Cmr4, Cmr5, Cmr6, with crRNA)
T1 chain 1: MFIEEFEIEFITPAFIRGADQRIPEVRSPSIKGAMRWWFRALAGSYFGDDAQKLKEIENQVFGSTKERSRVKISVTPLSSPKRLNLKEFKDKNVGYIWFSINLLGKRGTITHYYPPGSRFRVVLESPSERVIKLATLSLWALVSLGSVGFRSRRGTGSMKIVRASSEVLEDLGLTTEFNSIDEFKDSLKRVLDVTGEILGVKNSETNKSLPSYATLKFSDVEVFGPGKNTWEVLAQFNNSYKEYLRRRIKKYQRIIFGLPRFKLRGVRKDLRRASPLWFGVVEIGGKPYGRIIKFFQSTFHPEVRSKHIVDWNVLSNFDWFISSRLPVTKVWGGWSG
T1 chain 2: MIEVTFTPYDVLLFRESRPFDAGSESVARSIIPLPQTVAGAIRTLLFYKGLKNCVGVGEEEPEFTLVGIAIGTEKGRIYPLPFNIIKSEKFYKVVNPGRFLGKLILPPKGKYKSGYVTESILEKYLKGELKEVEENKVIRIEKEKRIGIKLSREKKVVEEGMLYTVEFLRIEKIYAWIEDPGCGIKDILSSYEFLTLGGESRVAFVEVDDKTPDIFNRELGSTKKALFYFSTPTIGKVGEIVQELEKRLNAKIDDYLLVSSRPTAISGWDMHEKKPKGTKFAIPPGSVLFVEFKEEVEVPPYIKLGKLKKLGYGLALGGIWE
T1 chain 3: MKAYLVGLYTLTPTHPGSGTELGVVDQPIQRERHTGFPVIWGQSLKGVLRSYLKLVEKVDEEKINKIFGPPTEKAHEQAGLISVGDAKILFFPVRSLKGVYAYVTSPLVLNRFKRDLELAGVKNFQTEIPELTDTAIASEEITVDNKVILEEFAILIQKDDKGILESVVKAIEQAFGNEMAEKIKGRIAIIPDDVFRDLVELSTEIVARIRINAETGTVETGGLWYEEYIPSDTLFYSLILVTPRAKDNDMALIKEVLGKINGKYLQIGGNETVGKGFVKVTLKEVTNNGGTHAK
T1 chain 4: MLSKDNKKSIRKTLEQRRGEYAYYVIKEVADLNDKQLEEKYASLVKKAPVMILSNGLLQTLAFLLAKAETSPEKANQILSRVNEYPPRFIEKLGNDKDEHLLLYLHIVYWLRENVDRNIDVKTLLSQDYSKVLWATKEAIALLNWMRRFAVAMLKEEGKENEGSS
T1 chain 5: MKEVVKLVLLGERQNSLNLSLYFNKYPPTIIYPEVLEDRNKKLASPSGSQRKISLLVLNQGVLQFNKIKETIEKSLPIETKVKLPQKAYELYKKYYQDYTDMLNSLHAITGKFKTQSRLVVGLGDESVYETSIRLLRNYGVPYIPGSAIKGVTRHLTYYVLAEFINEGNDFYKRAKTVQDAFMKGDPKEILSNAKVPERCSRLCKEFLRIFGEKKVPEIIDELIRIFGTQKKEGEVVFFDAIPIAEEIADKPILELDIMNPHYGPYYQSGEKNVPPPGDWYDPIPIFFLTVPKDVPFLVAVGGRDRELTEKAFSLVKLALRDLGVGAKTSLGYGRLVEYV

B1: Pyrococcus furiosus Cmr2 protein, wild type (PF1129) (protein)
chain: MVNIKEKLFVYLHDPPDKALKIENHEERSKKILSSGNIQYSRTDKVKQADALSSKTQRFIIRTKENKEPVIDFLGRSSGKYFHVGYPVFIHPISTEIKRYETLEKYIDLGRSNRGERFVNEFLERVSKLEGDVLKEVFEDASNKFKGEESKQWAYIWQFYPVKLKEGVKEFAKSELKLKEEEAEKFAEEFVNLPADTRFPDHAIWTHLDLTSALSVKDPTLLRIKIVPVQPFIANSRKQLDLWASSHLLSMLMYKALEVIVDKFGPEHVIYPSLRDQPFFLKFYLGENIGDEILVANLPNKALAIVSGKEAEKIEEEIKKRIRDFLLQLYREAVDWAVENGVVKVDRSEKDSMLKEAYLKIVREYFTVSITWVSLSEKEDIYQVTENAGLSDEDVKKWLKFAEKKENSRVLERIAIYPLLVKILDSLGERKVTEERFEKSEQLKGWKCHVCGENLAIFGDMYDHDNLKSLWLDEEPLCPMCLIKRYYPVWIRSKTGQKIRFESVVDVALLYKNWRKIFDEKYGKDLVSKAREVSEDFVKDNMLVDSDLYYSSTWESGLSKKLKNKKEIDEEKVKEVVDFLNAAYKEIGNPPKYYAILVMDGDDMGKVISGEVLGEISTRIHPNIRDYVEIPEAKYYSTPQVHVAISQALANFSIREVRSVVKDEGLLIYAGGDDVLAILPVDKALEVAYKIRKEFGKSFENGSLLPGWKLSAGILIVHYKHPLYDALEKARDLLNNKAKNVPGKDTLAIGLLKRSGSYYISLVGWELIRVFYNSELRKKLLEEKGGVGKRFIYHVLREVDTWPKVGIDEMLKFEVIRHIRGRNKEETKELREKIYGEIKDLLEHVRGNNEVEKVRGLFTFLKIITDAEVFP
ssDNA nuclease activity (cleavage of 5' radiolabeled ssDNA oligo, denaturing PAGE): The reconstituted Cmr complex (including Cmr1-6 and crRNA) displays very little ssDNA nuclease activity in comparison with approximately equimolar concentrations of Cmr2 alone
